# Data from patent CN113999301A (JIANGSU XINTRUM PHARMACEUTICALS CO LTD, dated 2022).
# B1: 抗SARS-CoV-2(COVID-19)S蛋白RBD单克隆抗体B15-5-B3 (antibody, V domains shown)
# VH: EVKFEESGGGLVQPGGSMKLSCAASGFTFSDAWMDWVRQSPEKGLEWVAEIRNKANNHATYYAESVKGRFTISRDDSKSSVYLQMNSLRAEDTGIYYCTPYDYAYPWFWGQGTLVTVSA
# VL: EIVLTQSPTTMAASPGEKITITCSASSSISSHYLHWYQQKPGFSPKLLIYRSYSLASGFPGRFSGSGSGTSFSLSIGTMEAEDVATYYCQQGSSRITPFGGGTKLEIK
# Target: 新冠原始假病毒的S蛋白 (FNV-SARS-CoV-2-S) (SARS-CoV-2, UniProt P0DTC2 14-1273)
# Assay: cell-based or functional assay
binder,measurement,value
B1,"假病毒中和效应 EC50 (luciferase, HEK293-ACE2 cells)",0.0369 µg/mL
